The target in one test is mouse IgG2b (Mus musculus, UniProt P01837). Type of test: binding. The note with it: mouse IgG2b-coated ELISA plates.
Test [1] has as its system P. falciparum merozoite surface protein 1 (MSP-1) subunits p83, p38, p42. The test can be described thus: ELISA of biotinylated VHHs on plate-bound MSP-1 subunits. It is filed as binding, Plasmodium falciparum. The conditions noted are these: streptavidin-HRP and TMB. On the procedure:
(§1) FIGS. 13A-13D: VHH nanobodies bind specifically to Plasmodium falciparum: merozoite surface protein 1 (MSP-1). FIG. 13A: Schematic of the PfMSP-1 pro-peptide and the four inclusive subunits: p83, p30, p38, and p42. FIG. 13B: Purified […] B4, anti-p38 B8, anti-p42 A6, and anti-p42 G11 VHHs were biotinylated and these VHHs were incubated with plate bound subunits proteins as indicated. Binding ELISA was detected by using streptavidin-HRP and tetramethylbenzidine (TMB). Data are represented as optical density (OD). Error bars show SEM. FIG. 13C: Western blot of VHHs against the three PfMSP-1 subunits, the full length p190 pro-peptide, and some 3D7 lysates from −38-44 hour 3D7 schizonts. FIG. 13D: Flow cytometry on synchronized ˜38-44 hour 3D7 schizonts using fluorescently (Cy5) labeled VHHs.
(§2) Purified VHH nanobodies were biotinylated and tested for specificity toward isolated MSP-1 subunits. Anti-p83 B4, anti-p38 B8, anti-p42 A6, and anti-p42 G11 VHHs were each incubated with plate-bound p83, p38, p42, and p42, and binding to the plates was detected by an enzyme-linked immunoassay (ELISA) using streptavidin-horseradish peroxidase (HRP) and tetramethylbenzidine (TMB). […] Finally, purified VHHs were tested against live ˜38-44 hour 3D7 schizonts in a flow cytometry assay.
A general note: ELISA stands for enzyme-linked immunosorbent assay.

For test [2], the target named is T1, PfMSP-1 subunits, full length p190 pro-peptide (Plasmodium falciparum, UniProt Q8I0U8).
T1 construct: the three PfMSP-1 subunits, the full length p190 pro-peptide
T1 sequence (Q8I0U8 20-1699): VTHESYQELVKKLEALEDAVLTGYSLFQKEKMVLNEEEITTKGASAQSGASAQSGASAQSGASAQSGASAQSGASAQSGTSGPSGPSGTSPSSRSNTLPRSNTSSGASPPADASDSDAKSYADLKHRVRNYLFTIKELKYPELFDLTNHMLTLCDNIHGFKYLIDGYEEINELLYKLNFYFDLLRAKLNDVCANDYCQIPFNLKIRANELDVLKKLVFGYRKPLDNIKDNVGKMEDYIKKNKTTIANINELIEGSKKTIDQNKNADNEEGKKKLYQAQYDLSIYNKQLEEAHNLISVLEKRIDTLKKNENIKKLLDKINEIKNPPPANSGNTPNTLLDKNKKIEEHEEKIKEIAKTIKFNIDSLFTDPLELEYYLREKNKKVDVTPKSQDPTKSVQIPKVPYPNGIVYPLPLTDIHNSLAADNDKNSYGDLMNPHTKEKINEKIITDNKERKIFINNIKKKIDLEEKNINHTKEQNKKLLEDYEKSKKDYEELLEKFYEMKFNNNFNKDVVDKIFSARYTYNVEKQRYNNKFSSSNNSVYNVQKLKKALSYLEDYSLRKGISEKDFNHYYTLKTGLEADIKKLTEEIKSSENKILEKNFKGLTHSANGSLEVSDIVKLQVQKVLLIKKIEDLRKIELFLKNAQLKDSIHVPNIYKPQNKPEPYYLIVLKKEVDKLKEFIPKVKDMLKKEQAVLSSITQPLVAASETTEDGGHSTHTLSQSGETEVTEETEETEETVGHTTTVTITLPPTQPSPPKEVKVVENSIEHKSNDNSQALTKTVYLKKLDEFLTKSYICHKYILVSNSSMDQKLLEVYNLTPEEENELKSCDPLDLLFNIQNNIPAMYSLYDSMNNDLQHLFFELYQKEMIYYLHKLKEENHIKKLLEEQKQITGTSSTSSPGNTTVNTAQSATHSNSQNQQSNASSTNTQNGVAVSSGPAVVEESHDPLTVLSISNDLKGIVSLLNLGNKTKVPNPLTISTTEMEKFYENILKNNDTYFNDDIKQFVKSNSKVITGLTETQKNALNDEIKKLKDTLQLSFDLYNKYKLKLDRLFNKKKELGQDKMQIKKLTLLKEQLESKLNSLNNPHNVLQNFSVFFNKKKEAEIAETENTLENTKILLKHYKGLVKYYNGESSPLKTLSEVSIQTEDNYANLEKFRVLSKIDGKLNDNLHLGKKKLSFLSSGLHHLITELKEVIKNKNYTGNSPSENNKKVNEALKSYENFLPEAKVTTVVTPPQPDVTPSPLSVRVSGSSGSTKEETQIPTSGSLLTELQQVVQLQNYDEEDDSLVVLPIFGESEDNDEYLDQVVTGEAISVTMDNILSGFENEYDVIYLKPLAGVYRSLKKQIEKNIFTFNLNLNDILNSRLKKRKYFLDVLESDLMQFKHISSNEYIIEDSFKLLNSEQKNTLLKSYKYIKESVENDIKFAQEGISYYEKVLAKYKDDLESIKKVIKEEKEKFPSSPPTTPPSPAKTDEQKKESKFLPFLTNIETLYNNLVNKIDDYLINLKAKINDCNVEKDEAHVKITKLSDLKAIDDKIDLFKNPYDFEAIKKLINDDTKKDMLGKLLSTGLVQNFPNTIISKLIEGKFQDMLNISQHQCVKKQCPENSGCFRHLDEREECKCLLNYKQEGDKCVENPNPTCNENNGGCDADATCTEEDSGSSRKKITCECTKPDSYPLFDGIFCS
Type of test: binding. As for the experimental part:
as §1, with “FIG.” for “FIGS. 13A-13D: VHH nanobodies bind specifically to Plasmodium falciparum: merozoite surface protein 1 (MSP-1). FIG.”
as §2

For test [3], the system named is PfMSP-1 subunits, full length p190 pro-peptide. Type of test: binding, Plasmodium falciparum. On the procedure: as §1, with “FIG.” for “FIGS. 13A-13D: VHH nanobodies bind specifically to Plasmodium falciparum: merozoite surface protein 1 (MSP-1). FIG.”
as §2

B1: VHHkappa: commercially available anti-mouse kappa chain VHH (nanobody clone TP1170), SEQ ID NO: 1 (protein)
VHH: QVQLVESGGGWVQPGGSLRLSCAASGFTFSDTAMMWVRQAPGKGREWVAAIDTGGGYTYYADSVKGRFTISRDNAKNTLYLQMNSLKPEDTARYYCAKTYSGNYYSNYTVANYGTTGRGTLVTVSSGG
As to B1, the “binding to mouse IgG2b (in words)” value in the test with mouse IgG2b was “nanomolar affinity”.

B2: Anti-p83 B4: VHH specific for P. falciparum MSP-1 p83, SEQ ID NO: 12 (protein)
VHH: QLQLVESGGGLAQAGGSLRLSCAASGRTSSTKPMGWFRQAPGLEREFVASISWLGGSTLYSDSVKGRFTISRDNAKNTVYLQMNSLKSEDTAVYYCAGGTSAYSGRDSSRYEYWGQGTQVTVSSLPETGGHHHHHH
For B2, the “binding to plate-bound MSP-1 subunits (ELISA)” value in test [1] is on record as “bind specifically to one subunit”. For the same molecule, in test [2], the “binding to lysate from ˜38-44 hour 3D7 schizonts” value is listed as “observed to bind”. In addition, in test [3], the “binding to MSP-1 subunits and pro-peptide p190 (gel electrophoresis / Western blot)” value is “bind to one subunit of MSP-1 and to the MSP-1 pro-peptide (p190), but not to any other subunit”.

The values above are taken from patent US20250144228A1, “NANOBODY-DRUG ADDUCTS AND USES THEREOF” (priority 2022, published 2025).
